# Reference: patent publication US20230212587A1, “Mutant Hydroxyphenylpyruvate Dioxygenase Polypeptide, Encoding Gene Thereof and Use Therefor” (Beijing Dabeinong Biotechnology Co., Ltd., priority 2019, published 2023)
# Tested on: Arabidopsis thaliana T1 plants
# Test: Topramezone tolerance of transgenic Arabidopsis thaliana T1 plants (pesticide damage grade by bleached leaf area, score, resistance evaluation)
# Assay type: in vivo
# Settings: HPPDs from different species, 7 DAT; for Classification and statistics of pesticide damage grade Grade 0 / Classification and statistics of pesticide damage grade Grade 1 / Classification and statistics of pesticide damage grade Grade 2 / Classification and statistics of pesticide damage grade Grade 3: number of plants (of 16) in this grade; for Scores: score for pesticide damage 0-100
# Summary of the method: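 Eighteen days after sowing, wild-type and HPPD-transgenic T1 Arabidopsis receive a topramezone spray at 1×, 2× or 4× field rate (25–100 g ai/ha) or water. Seven days later each plant is graded by its proportion of bleached leaf area.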
Molecule,Classification and statistics of pesticide damage grade Grade 0 (topramezone 25 g ai/ha (1x)),Classification and statistics of pesticide damage grade Grade 1 (topramezone 25 g ai/ha (1x)),Classification and statistics of pesticide damage grade Grade 2 (topramezone 25 g ai/ha (1x)),Classification and statistics of pesticide damage grade Grade 3 (topramezone 25 g ai/ha (1x)),Classification and statistics of pesticide damage grade Grade 0 (topramezone 100 g ai/ha (4x)),Classification and statistics of pesticide damage grade Grade 1 (topramezone 100 g ai/ha (4x)),Classification and statistics of pesticide damage grade Grade 2 (topramezone 100 g ai/ha (4x)),Classification and statistics of pesticide damage grade Grade 3 (topramezone 100 g ai/ha (4x)),Scores (topramezone 25 g ai/ha (1x)),Scores (topramezone 100 g ai/ha (4x)),Resistance evaluation (topramezone 25 g ai/ha (1x)),Resistance evaluation (topramezone 100 g ai/ha (4x))
"SiHPPD-02: native Setaria italica HPPD, SEQ ID NO: 57 (protein, listed as Setaria italica, SiHPPD Amino Acid Sequence) MPPTPTPAAAAPGAAAAPAAGDQAAFRLVGHRGFVRVNPRSDRFHTLSFHHVELWCADATSAAGRFSFGLGAPLAARSDLSTGNSAHASLLLRSGSLAFLFTAPYAHGVDAATASLPSFSAPAARSFAADHGLAVRAIGLRVADAEDAFRASVAAGARPAFKPVELGLGFRLAEVELYGDVVLRYVSYPDAEDAPFLPGFENVNNPGALNYGLRRFDHIVGNVPELAPVAAYVAGFTGFHEFAEFTAEDVGTAESGLNSMVLANNSETVLIPLNEPVHGTKRRSQIQTFLDHNGGPGVQHIALASDDVLRTLREMQARSAMGGFEFMAAPPPDYYEGVRRRAGDVLSEAQIKECQELGVLVDRDDQGVLLQIFTKPVGDRQTLFLEIIQRIGCMEKDEQGQEYQKGGCGGFGKGNFSQLFKSIEDYEKSLESKQAAAVQGS",0,0,0,16,0,0,0,16,100,100,non-resistant (non-resistant plants (scores 68-100)),non-resistant (non-resistant plants (scores 68-100))
"SiHPPDm-F372A-02: Setaria italica HPPD mutant F372A, SEQ ID NO: 60 (protein, SiHPPDm-F372A Amino Acid Sequence) MPPTPTPAAAAPGAAAAPAAGDQAAFRLVGHRGFVRVNPRSDRFHTLSFHHVELWCADATSAAGRFSFGLGAPLAARSDLSTGNSAHASLLLRSGSLAFLFTAPYAHGVDAATASLPSFSAPAARSFAADHGLAVRAIGLRVADAEDAFRASVAAGARPAFKPVELGLGFRLAEVELYGDVVLRYVSYPDAEDAPFLPGFENVNNPGALNYGLRRFDHIVGNVPELAPVAAYVAGFTGFHEFAEFTAEDVGTAESGLNSMVLANNSETVLIPLNEPVHGTKRRSQIQTFLDHNGGPGVQHIALASDDVLRTLREMQARSAMGGFEFMAAPPPDYYEGVRRRAGDVLSEAQIKECQELGVLVDRDDQGVLLQIATKPVGDRQTLFLEIIQRIGCMEKDEQGQEYQKGGCGGFGKGNFSQLFKSIEDYEKSLESKQAAAVQGS",13,2,1,0,6,8,2,0,8,25,highly resistant (highly resistant plants (scores 0-15)),moderately resistant (moderately resistant plants (scores 16-33))
"BdHPPD-02: native Brachypodium distachyon HPPD, SEQ ID NO: 45 (protein, Brachypodium distachyon; BdHPPD Amino Acid Sequence) MPPPATTAAPAAAAVTPEHARPPRRVARVNPRSDRFSALSFHHVELWCADAASAAGRFSFALGAPPAARSDLSTGNSAHASILLRSGSLAFLFTAPYAPSPASDSAASIPSFSASAARQFTADHGGLAVRAVALRVSSASDAFHASVSAGARPSFPPADLGQGFALAEVELYGDVVLRFISHPDENTEIPFLPGFESVSNPGASTYGLTRFDHVVGNVPSLAPVAAYIAGFTGFHEFAEFTAEDVGTADSGLNSVVLANNSERVLLPLNEPVHGTKRRSQIQTYLDHHGGPGVQHIALASDDVLRTLREMRARSAMGGFEFLAPPPPNYYDGVRRRAGDVLSEAQIKECQELGVLVDRDDQGVLLQIFTKPVGDRPTLFLEMIQRIGCMEKDEIGQEQQKGGCGGFGKGNFSELFRSIEEYEKSLEAKQSAVVQES",0,0,0,16,0,0,0,16,100,100,non-resistant (non-resistant plants (scores 68-100)),non-resistant (non-resistant plants (scores 68-100))
"BdHPPDm-F372A-02: Brachypodium distachyon HPPD mutant F372A, SEQ ID NO: 48 (protein, BdHPPDm-F372A Amino Acid Sequence) MPPPATTAAPAAAAVTPEHARPPRRVARVNPRSDRFSALSFHHVELWCADAASAAGRFSFALGAPPAARSDLSTGNSAHASILLRSGSLAFLFTAPYAPSPASDSAASIPSFSASAARQFTADHGGLAVRAVALRVSSASDAFHASVSAGARPSFPPADLGQGFALAEVELYGDVVLRFISHPDENTEIPFLPGFESVSNPGASTYGLTRFDHVVGNVPSLAPVAAYIAGFTGFHEFAEFTAEDVGTADSGLNSVVLANNSERVLLPLNEPVHGTKRRSQIQTYLDHHGGPGVQHIALASDDVLRTLREMRARSAMGGFEFLAPPPPNYYDGVRRRAGDVLSEAQIKECQELGVLVDRDDQGVLLQIATKPVGDRPTLFLEMIQRIGCMEKDEIGQEQQKGGCGGFGKGNFSELFRSIEEYEKSLEAKQSAVVQES",16,0,0,0,6,10,0,0,0,21,highly resistant (highly resistant plants (scores 0-15)),moderately resistant (moderately resistant plants (scores 16-33))
"HvHPPD-02: native Hordeum vulgare HPPD, SEQ ID NO: 51 (protein, Hordeum vulgare; HvHPPD Amino Acid Sequence) MPPTPTTPAATGAAAAVTPEHARPHRMVRFNPRSDRFHTLSFHHVEFWCADAASAAGRFAFALGAPLAARSDLSTGNSAHASQLLRSGSLAFLFTAPYANGCDAATASLPSFSADAARRFSADHGIAVRSVALRVADAAEAFRASRRRGARPAFAPVDLGRGFAFAEVELYGDVVLRFVSHPDGTDVPFLPGFEGVTNPDAVDYGLTRFDHVVGNVPELAPAAAYIAGFTGFHEFAEFTAEDVGTTESGLNSVVLANNSEGVLLPLNEPVHGTKRRSQIQTFLEHHGGPGVQHIAVASSDVLRTLRKMRARSAMGGFDFLPPPLPKYYEGVRRLAGDVLSEAQIKECQELGVLVDRDDQGVLLQIFTKPVGDRPTLFLEMIQRIGCMEKDERGEEYQKGGCGGFGKGNFSELFKSIEDYEKSLEAKQSAAVQGS",0,0,0,16,0,0,0,16,100,100,non-resistant (non-resistant plants (scores 68-100)),non-resistant (non-resistant plants (scores 68-100))
"HvHPPDm-F372A-02: Hordeum vulgare HPPD mutant F372A, SEQ ID NO: 54 (protein, HvHPPDm-F372A Amino Acid Sequence) MPPTPTTPAATGAAAAVTPEHARPHRMVRFNPRSDRFHTLSFHHVEFWCADAASAAGRFAFALGAPLAARSDLSTGNSAHASQLLRSGSLAFLFTAPYANGCDAATASLPSFSADAARRFSADHGIAVRSVALRVADAAEAFRASRRRGARPAFAPVDLGRGFAFAEVELYGDVVLRFVSHPDGTDVPFLPGFEGVTNPDAVDYGLTRFDHVVGNVPELAPAAAYIAGFTGFHEFAEFTAEDVGTTESGLNSVVLANNSEGVLLPLNEPVHGTKRRSQIQTFLEHHGGPGVQHIAVASSDVLRTLRKMRARSAMGGFDFLPPPLPKYYEGVRRLAGDVLSEAQIKECQELGVLVDRDDQGVLLQIATKPVGDRPTLFLEMIQRIGCMEKDERGEEYQKGGCGGFGKGNFSELFKSIEDYEKSLEAKQSAAVQGS",15,1,0,0,8,8,0,0,2,17,highly resistant (highly resistant plants (scores 0-15)),moderately resistant (moderately resistant plants (scores 16-33))
